Assays:
[1] = biological target: T1, 2F1/Fc soluble fusion protein (human 2F1 extracellular domain joined to the Fc region of a human IgG1) (human, UniProt Q13478 20-329); assay: BIAcore; 2F1/Fc captured by anti-human IgG Fc serum, ligand at several different concentrations
T1 construct: Captured on the BIAcore chip by goat anti-human IgG Fc serum; also called human 2F1/Fc fusion protein; 2F1/Fc protein; not shown: Fc region of a human IgG1; made by procedures analogous to Baum et al. 1994
T1 sequence: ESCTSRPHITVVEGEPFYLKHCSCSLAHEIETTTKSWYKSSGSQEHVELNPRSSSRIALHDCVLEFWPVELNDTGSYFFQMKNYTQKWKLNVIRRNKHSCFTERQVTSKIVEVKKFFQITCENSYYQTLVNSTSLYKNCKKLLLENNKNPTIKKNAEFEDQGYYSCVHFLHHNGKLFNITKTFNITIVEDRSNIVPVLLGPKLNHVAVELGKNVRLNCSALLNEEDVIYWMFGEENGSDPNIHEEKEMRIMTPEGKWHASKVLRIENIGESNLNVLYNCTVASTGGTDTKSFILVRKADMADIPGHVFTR
Text: (§1) A BIAcore biosensor (Pharmacia Biosensor AB, Piscataway, N.J.) was used to examine binding of IL-1 ligands to the human 2F1/Fc fusion protein, using procedures essentially as described in Arend et al. (*J. Immunol.* 153: 4766–4774, 1994). Briefly, a goat anti-human IgG serum directed against the Fc region (Jackson Immunoresearch Laboratories, Inc., West Grove, Pa.), covalently coupled to the dextran matrix of a hydrogel chip, was used to capture the human 2F1/Fc protein. The 2F1/Fc fusion protein thus was immobilized on the BIAcore chip. The three IL-1 ligands, at several different concentrations, were reacted with the captured protein, and the change of mass per unit area over time was measured.

[2] = biological target: T2, soluble type I IL-1RI/Fc fusion protein (extracellular domain of human type I IL-1R fused to the Fc region … (human, UniProt P14778 18-336)); assay: BIAcore; Fc fusion captured by anti-human IgG Fc serum
T2 construct: extracellular domain; Positive control in the BIAcore assay; also called human type I IL-1R/Fc fusion protein; not shown: Fc region polypeptide (human IgG1, as for 2F1/Fc)
T2 sequence (looked up): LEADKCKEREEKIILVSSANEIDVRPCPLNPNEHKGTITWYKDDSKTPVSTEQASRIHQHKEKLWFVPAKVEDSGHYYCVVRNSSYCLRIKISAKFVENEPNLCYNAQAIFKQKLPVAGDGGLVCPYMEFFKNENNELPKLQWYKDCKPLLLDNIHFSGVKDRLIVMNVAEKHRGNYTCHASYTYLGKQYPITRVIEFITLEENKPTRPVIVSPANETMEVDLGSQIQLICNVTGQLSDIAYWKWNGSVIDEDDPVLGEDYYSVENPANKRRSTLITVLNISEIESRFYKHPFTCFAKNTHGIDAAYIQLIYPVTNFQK
Text: as §1

[3] = biological target: chimeric receptor: extracellular and transmembrane portions of the mouse type I IL-1 receptor fused to the cytoplasmic portion of human 2F1 (mouse; human) (UniProt P13504); assay: cell-based or functional assay; settings: scale: fold of the level mediated by the intact mouse type I IL-1R
chimeric receptor: extracellular and transmembrane portions of the mouse type I IL-1 receptor fused to the cytoplasmic portion of human 2F1 (mouse; human), sequence (P13504 other isoform, or with tags, fused parts or gaps mutant, form in doubt): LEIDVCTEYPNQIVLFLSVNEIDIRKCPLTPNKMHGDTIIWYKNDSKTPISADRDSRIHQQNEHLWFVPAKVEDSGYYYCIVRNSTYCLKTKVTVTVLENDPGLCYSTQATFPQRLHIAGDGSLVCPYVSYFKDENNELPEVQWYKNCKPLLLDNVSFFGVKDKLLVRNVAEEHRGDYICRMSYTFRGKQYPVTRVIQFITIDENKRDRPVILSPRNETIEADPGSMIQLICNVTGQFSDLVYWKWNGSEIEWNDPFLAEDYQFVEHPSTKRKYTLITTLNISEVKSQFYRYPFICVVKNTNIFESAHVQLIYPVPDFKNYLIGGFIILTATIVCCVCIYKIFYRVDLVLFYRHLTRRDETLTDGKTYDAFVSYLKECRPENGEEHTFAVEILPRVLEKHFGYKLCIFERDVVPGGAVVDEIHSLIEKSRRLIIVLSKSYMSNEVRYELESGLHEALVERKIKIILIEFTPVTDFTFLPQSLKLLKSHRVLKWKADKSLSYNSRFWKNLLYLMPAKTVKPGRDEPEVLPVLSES

- binding result [1]: no binding
- binding result [2]: binds
- induction of IL-8 promoter function (IL-2Rα reporter, COS7 cells) [3]: 0.5
B1: human IL-1α (ligand, UniProt P01583 113-271, looked up)
chain: SAPFSFLSNVKYNFMRIIKYEFILNDALNQSIIRANDQYLTAAALHNLDEAVKFDMGAYKSSKDDAKITVILRISKTQLYVTAQDEDQPVLLKEMPEIPKTITGSETNLLFFWETHGTKNYFTSVAHPNLFIATKQDYWVCLAGGPPSITDFQILENQA

— patent US7235238 (IMMUNEX, dated 2007)
